Test results taken from the DeepSol protein solubility set.

Experiment: soluble on expression in E. coli; label from the status in PepcDB or PDB records

Sequence | soluble on expression in E. coli
GPGSMQFTVEQIRSVRNNYLEPPYPGFSLDEVVRRRRLTQTKLVRGENAWVAKGTAQTTEEWVQRLLHGTLNKLTEENKDIMIDKLLTKELFATEDIMNMVVNIIFKKALDEPENSKLYAGVCHSLALYEAKVLRDGHKGERPQSQLRDAIISTAQHEFRTLSKELSKMEDKSEEELEYERSNVMRRKRSNMRFIGELYLCTALTHSTMFTVMDLTMRCSDKTGFPSSENIELLAALLNTIGDRLDKNHKKTLDPYFTSLENFNKKSDCPYPPRIRFKIMDLLDLRKRGWGLKPKPVKAALPPSHGKDKKYATAPPPKKGGRDQGSAAAASKSWRDAATTKTGTAAAPAPSADKGLNGRGTSSAAPAANTAALSSSSASTAAATAPAGASFRDEASPQVPLVKFELRVASMFQEWVADRTNDVILHWVDQFNTCDRFFESESELCVAVAQEVIHSACTTTRKDAQREAFSFLVVGLYMIDTEVFDGFASALASAIEDGLLEDVPKFGERFMSMLRLTSTEQETRADVYFDAANVLRLTYNRLESPDDSAVDTLMSFWDRVPLPSTDEENMIRMDLDVVYSLCNPEGVQDGLEKLLSRIIHSMLQMQLMDAEVLDEFLCLDVEDGLCAKVIADYKERFPK | soluble
MGKLYVFDHPLIQHKITYIRDKNTGTKDFRELVDEVASLMAFEITRDLPLKDIEIETPVSKATTKVIAGKKLGLIPILRAGLGMVDGILKLIPAAKVGHVGLYRDPKTLQPVEYYVKLPTDVEERDFIVLDPMLATGGSAAEAINSLKKRGAKQIKLMCIVAAPEGVKVVQEEHPDVDIYVAALDEKLNDHGYVVPGLGDAGDRLFGTK | not soluble
MTPIHVVGIGLDGLPGLAAAVQQIIDSATLLVGSDRHLQLIPQGDTPRLSLGNFNASLKAIQTHLDTTANPQVVILTSGDPLFYGLGRWLLEVFAPDQLTFHPHLSAVQLAFSRLKLPWQDAVIYSAHGRDLAGLVPLLQRGVEKIAIYTDGEANIAAISRLYQALHIPVTYRAWVCQALGSAEEAILPWDLAQPVTALPPVHPLNLVVLLRQPQRLPPREQPIVGLGDDQFFTFADRPSLMTKREVRVLVLAELALTSTVEIVWDIGAGTGSVAVEIARLAPQATIYAIEKTAIGFQLIERNRRAFGLANLIPLQGTAPQCLRDLPPPDRVFIGGSGAQLLANLDYCWSHLNAGGRLVLAIATLEHQGQVLHWCQTHQINPQVLQVQLSRSVPLGQGHRLHPLNPVTLMTLTQGLEHHHHHH | not soluble
MSLKKINFGIVGLGRLGRAHAENLAFKIPNANLLAVCSIDKSQVDEVQKAWNIPYGYTDFDEMLKNKELDAIFIASPSGFHCEQIEKALDAGFHVFSEKPLGLYLDDAVRAMKAVNSHPNQIFMLGFMRRYDKSYAYAKKKIEEGAIGKPVLVRCYGLDPAKALPSFLKFAKDSYSGGLFLDMAIHDIDLARWYLDSEADELWAIGGAYGHKEFDEINDAETGAAMVKFKNGTMALLVAGRNCAHGYHIETEIIGTEGTLRIGTTPDKNLVTVFDSRGVNKECAGGFLERFEDAYLAEVKEFVDCVLENRKPAVTVEDGVLSTIVGYACKESFETGELVKVNYEGYDKLIKEGHHHHHH | soluble
MSRITQVHRILEQKHLDAIIILSDYNRRYLSGFTGTSGALIISKDKQYLITDFRYIDQATKQAPNYEIINRKSTIIGEIKELLHQENFENVGFEGHHVSYDTYLELNKSRISLISISNTVDKIRDVKDADEIALIQKAANIVDETYEYILTVVKAGMTEKELKAILESKMLELGADGPSFDTIVASGHRGALPHGVASDKIIEKGDMITLDFGAYYNGYCSDITRTFAIGEPDPKLKEIYQIVLESQMKAINEIRPGMTGAEADAISRNYLESKGYGKEFGHSLGHGIGLEIHEGPMLARTIQDKLQVNNCVTVEPGVYIEGLGGIRIEDDILITENGCQVFTKCTKDLIVLT | not soluble
MTLMIDENFKKQLAQRRERVEDLFYFENSKEIGRGTYGLVYKAVPKKQNGQFPNKEYALKMIEGQGFSMSACREIALFRELRHPNLICLQRVFLTNEKKVWLLLDYAEHDLWHVIKHHRTAKSKKVPIMVPRNMVKNILFQILSGMHYLHSNWVLHRDLKPANILLMGDGPPDMRGRVKIADLGFSRIYANPLKPMAELDPVVVTFWYRAPELLLGAKHYTKAIDVWAIGCIFAELLTAEPLFFCKEEDIKAQNPYHYDQVKRIFHLLGYPSDADWPDMKKMPDHQRLLSDARNEGTPIQTFPNSLHRYFDKWKINSQSSPYRLLVKLLTVDPTKRVSCEEAMNDIYFRKMERPPRETDDVFNKYPIPYAKKEQQMTVAPDQAQQQHQQQQVQMQQQPQMGQQQMMGQPQMVQPQMGQPPMGGAHPGVVAPDGHPHQMMQQQQHPQQHHMQYQGMHDPMQGGMDEGPQAKMMRMGNVPVGRYAPMPPPYGAPQDYHPQQGPPMVQMMQQPGPSGYYPQRPGQPTGAVPGPGPQGYMNPQMGMQMGMRAPGVPPQGYMPGRGMAPPQMGQQQPGPNQQQQQQWQQQYHR | not soluble
MASLSDQSGSIGSEQTRPSGAIPVESLPPQALEQLIASLQQEVEQLADALQQLNFANQRWTLCKQSIEAFAEETTRVDLPGAQSRATDAISSTASAKPETSVEVNQNQRLLVPLSRSLYVLGRVINPERCLIDIGTGYHVERKLADAAEFFDRRLKHVRGSMRQLTLKIDQNQQQMQTIREILVRKLAGAQQAAEHT | not soluble
MMDLELPPPGLPSQQDMDLIDILWRQDIDLGVSREVFDFSQRRKEYELEKQKKLEKERQEQLQKEQEKAFFAQLQLDEETGEFLPIQPAQHIQSETSGSANYSQVAHIPKSDALYFDDCMQLLAQTFPFVDDNEVSSATFQSLVPDIPGHIESPVFIATNQAQSPETSVAQVAPVDLDGMQQDIEQVWEELLSIPELQCLNIENDKLVETTMVPSPEAKLTEVDNYHFYSSIPSMEKEVGNCSPHFLNAFEDSFSSILSTEDPNQLTVNSLNSDATVNTDFGDEFYSAFIAEPSISNSMPSPATLSHSLSELLNGPIDVSDLSLCKAFNQNHPESTAEFNDSDSGISLNTSPSVASPEHSVESSSYGDTLLGLSDSEVEELDSAPGSVKQNGPKTPVHSSGDMVQPLSPSQGQSTHVHDAQCENTPEKELPVSPGHRKTPFTKDKHSSRLEAHLTRDELRAKALHIPFPVEKIINLPVVDFNEMMSKEQFNEAQLALIRDIRRRGKNKVAAQNCRKRKLENIVELEQDLDHLKDEKEKLLKEKGENDKSLHLLKKQLSTLYLEVFSMLRDEDGKPYSPSEYSLQQTRDGNVFLVPKSKKPDVKKN | not soluble
MTQVRETVSFKAGDVILYPGVPGPRDRAYRVLEGLVRLEAVDEEGNALTLRLVRPGGFFGEEALFGQERIYFAEAATDVRLEPLPENPDPELLKDLAQHLSQGLAEAYRRIERLATQRLKNRMAAALLELSETPLAHEEEGKVVLKATHDELAAAVGSVRETVTKVIGELAREGYIRSGYGKIQLLDLKGLKELAESRGQGR | soluble
MKLTILRLEHFSAQDQIDLGKIWPEYSASSLSVDETHRIYAARFNERLLGAVRVTLSGTQGALDSLRVREITRRRGVGQYLVEEVIRDNPNVSSWWMADVGVEDRSVMAAFMQALGFTAQHDGWEKR | not soluble
MGQVLPLVTRQGDRIAIVSGLRTPFARQATAFHGIPAVDLGKMVVGELLARSEIPAEVIEQLVFGQVVQMPEAPNIAREIVLGTGMNVHTDAYSVSRACATSFQAVANVAESLMAGTIRAGIAGGADSSSVLPIGVSKKLARVLVDVNKARTMSQRLKLFSRLRLRDLMPVPPAVAEYSTGLRMGDTAEQMAKTYGITREQQDALAHRSHQRAAQAWSDGKLKEEVMTAFIPPYKQPLVEDNNIRGNSSLADYAKLRPAFDRKHGTVTAANSTPLTDGAAAVILMTESRAKELGLVPLGYLRSYAFTAIDVWQDMLLGPAWSTPLALERAGLTMSDLTLIDMHEAFAAQTLANIQLLGSERFAREALGRAHATGEVDDSKFNVLGGSIAYGHPFAATGARMITQTLHELRRRGGGFGLVTACAAGGLGAAMVLEAE | soluble
